Measurements reported in the supplement of paper PMC7125110.
± gives the standard error. For some of these results: Variants at the floor of the assay were thinned out.

B1: glmS ribozyme (parent)
chain: AUAAAAGCGCCAGAACUACAGAAAUGUAGUUGACGAGGAGGAGGUUUAUCGAAUUUUCGGCGGAUGCCUCCAAA

Tests used:
Settings in all cases: with glucosamine-6-phosphate
[1] = variants of: B1; assay: kcat; higher = faster cleavage; RNA array
Method in brief: (§1)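 On sequenced MiSeq chips, barcoded ribozyme variants were made in situ by E. coli RNA polymerase and followed at 37 °C through a hybridised Cy3 probe. Glucosamine-6-phosphate was flowed in at 40 μM to 10 mM in HEPES/KCl/Mg(OAc)2 buffer. Exponential fits to normalised per-tile medians gave kobs, and weighted Michaelis–Menten fits gave kcat and KM.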

[2] = variants of: B1; assay: KM; higher = weaker cofactor use; RNA array
Method in brief: as §1

[3] = variants of: B1; assay: self-cleavage kobs at 40 uM GlcN6P; higher = faster cleavage; RNA array
Method in brief: as §1

[4] = variants of: B1; assay: self-cleavage kobs at 160 uM GlcN6P; higher = faster cleavage; RNA array
Method in brief: as §1

[5] = variants of: B1; assay: self-cleavage kobs at 640 uM GlcN6P; higher = faster cleavage; RNA array
Method in brief: as §1

[6] = variants of: B1; assay: self-cleavage kobs at 2500 uM GlcN6P; higher = faster cleavage; RNA array
Method in brief: as §1

[7] = variants of: B1; assay: self-cleavage kobs at 10000 uM GlcN6P; higher = faster cleavage; RNA array
Method in brief: as §1

A12C U65A
kcat [1]: 0.00216 ± 0.00024 s⁻¹
KM [2]: 2790 ± 570 µM
self-cleavage kobs at 40 uM GlcN6P [3]: 3.82e-05 ± 8.1e-06 s⁻¹
self-cleavage kobs at 160 uM GlcN6P [4]: 0.000134 ± 3.3e-05 s⁻¹
self-cleavage kobs at 640 uM GlcN6P [5]: 0.000345 ± 6.5e-05 s⁻¹
self-cleavage kobs at 2500 uM GlcN6P [6]: 0.000932 ± 0.00017 s⁻¹
self-cleavage kobs at 10000 uM GlcN6P [7]: 0.00173 ± 0.00015 s⁻¹

A6C C34A G37A G38A G63U C68U C70G
kcat [1]: 1.43e-05 ± 4.9e-06 s⁻¹
self-cleavage kobs at 640 uM GlcN6P [5]: < 1e-05 s⁻¹

G37A U54G
kcat [1]: 0.00267 ± 0.00094 s⁻¹
self-cleavage kobs at 40 uM GlcN6P [3]: 6.88e-05 ± 1.3e-05 s⁻¹
self-cleavage kobs at 160 uM GlcN6P [4]: 0.000132 ± 2.9e-05 s⁻¹
self-cleavage kobs at 640 uM GlcN6P [5]: 0.000413 ± 9.4e-05 s⁻¹
self-cleavage kobs at 2500 uM GlcN6P [6]: 0.000936 ± 0.00022 s⁻¹
self-cleavage kobs at 10000 uM GlcN6P [7]: 0.00234 ± 0.00032 s⁻¹

U45C C71A
kcat [1]: 0.00125 ± 0.00022 s⁻¹
KM [2]: 4720 ± 1500 µM
self-cleavage kobs at 640 uM GlcN6P [5]: 0.00014 ± 3.9e-05 s⁻¹
self-cleavage kobs at 2500 uM GlcN6P [6]: 0.000744 ± 0.00031 s⁻¹
self-cleavage kobs at 10000 uM GlcN6P [7]: 0.000832 ± 0.00015 s⁻¹

A12U U47A
kcat [1]: 0.063 ± 0.02 s⁻¹
KM [2]: 1490 ± 570 µM
self-cleavage kobs at 40 uM GlcN6P [3]: 0.00189 ± 0.00018 s⁻¹
self-cleavage kobs at 160 uM GlcN6P [4]: 0.0041 ± 0.00089 s⁻¹
self-cleavage kobs at 640 uM GlcN6P [5]: 0.0249 ± 0.0068 s⁻¹
self-cleavage kobs at 2500 uM GlcN6P [6]: 0.0403 ± 0.011 s⁻¹
self-cleavage kobs at 10000 uM GlcN6P [7]: 0.0554 ± 0.01 s⁻¹

A14U G62A C70G
kcat [1]: 5.52e-05 ± 1.4e-05 s⁻¹
self-cleavage kobs at 640 uM GlcN6P [5]: 5.47e-05 ± 2e-05 s⁻¹

G66U C67G
kcat [1]: 0.000827 ± 0.00015 s⁻¹
KM [2]: 2210 ± 730 µM
self-cleavage kobs at 40 uM GlcN6P [3]: 3e-05 ± 7.9e-06 s⁻¹
self-cleavage kobs at 160 uM GlcN6P [4]: 4.82e-05 ± 7.9e-06 s⁻¹
self-cleavage kobs at 640 uM GlcN6P [5]: 0.000262 ± 5.1e-05 s⁻¹
self-cleavage kobs at 2500 uM GlcN6P [6]: 0.000418 ± 4.7e-05 s⁻¹
self-cleavage kobs at 10000 uM GlcN6P [7]: 0.000687 ± 6.4e-05 s⁻¹

G60U G66U
kcat [1]: < 1e-05 s⁻¹
self-cleavage kobs at 160 uM GlcN6P [4]: < 1e-05 s⁻¹
self-cleavage kobs at 640 uM GlcN6P [5]: < 1e-05 s⁻¹
self-cleavage kobs at 10000 uM GlcN6P [7]: < 1e-05 s⁻¹

U45C U46G
kcat [1]: 0.00122 ± 0.00043 s⁻¹
KM [2]: 2110 ± 1100 µM
self-cleavage kobs at 160 uM GlcN6P [4]: 7.78e-05 ± 1.5e-05 s⁻¹
self-cleavage kobs at 640 uM GlcN6P [5]: 0.000322 ± 8.8e-05 s⁻¹
self-cleavage kobs at 2500 uM GlcN6P [6]: 0.000911 ± 0.00015 s⁻¹
self-cleavage kobs at 10000 uM GlcN6P [7]: 0.000685 ± 0.00025 s⁻¹

A39C A52G
kcat [1]: 0.000297 ± 5.1e-05 s⁻¹
KM [2]: 2850 ± 940 µM
self-cleavage kobs at 640 uM GlcN6P [5]: 4.74e-05 ± 8.3e-06 s⁻¹
self-cleavage kobs at 2500 uM GlcN6P [6]: 0.00017 ± 2.1e-05 s⁻¹
self-cleavage kobs at 10000 uM GlcN6P [7]: 0.000217 ± 2.6e-05 s⁻¹

G38C C61A
kcat [1]: < 1e-05 s⁻¹
self-cleavage kobs at 160 uM GlcN6P [4]: < 1e-05 s⁻¹
self-cleavage kobs at 2500 uM GlcN6P [6]: < 1e-05 s⁻¹

A48G U56C
kcat [1]: 5.09e-05 ± 1.7e-06 s⁻¹
KM [2]: 3700 ± 360 µM
self-cleavage kobs at 10000 uM GlcN6P [7]: 3.71e-05 ± 1.1e-05 s⁻¹

A20G C58U C70G
kcat [1]: 7.18e-05 ± 2.9e-05 s⁻¹
self-cleavage kobs at 640 uM GlcN6P [5]: 0.000104 ± 2.6e-05 s⁻¹
self-cleavage kobs at 2500 uM GlcN6P [6]: 7.21e-05 ± 1.9e-05 s⁻¹

G32A A64G
kcat [1]: 0.00438 ± 0.00041 s⁻¹
KM [2]: 6200 ± 820 µM
self-cleavage kobs at 40 uM GlcN6P [3]: 2.33e-05 ± 9.5e-06 s⁻¹
self-cleavage kobs at 160 uM GlcN6P [4]: 0.000104 ± 1.8e-05 s⁻¹
self-cleavage kobs at 640 uM GlcN6P [5]: 0.000433 ± 5.6e-05 s⁻¹
self-cleavage kobs at 2500 uM GlcN6P [6]: 0.00144 ± 0.00035 s⁻¹
self-cleavage kobs at 10000 uM GlcN6P [7]: 0.00267 ± 0.00027 s⁻¹

U46A C70A
kcat [1]: 0.000184 ± 2.2e-05 s⁻¹
KM [2]: 633 ± 260 µM
self-cleavage kobs at 640 uM GlcN6P [5]: 0.000115 ± 2.6e-05 s⁻¹
self-cleavage kobs at 2500 uM GlcN6P [6]: 0.000146 ± 2.7e-05 s⁻¹
self-cleavage kobs at 10000 uM GlcN6P [7]: 0.000167 ± 2.9e-05 s⁻¹

U30A U47G
kcat [1]: 0.000918 ± 0.00028 s⁻¹
self-cleavage kobs at 40 uM GlcN6P [3]: 7.81e-05 ± 2.4e-05 s⁻¹
self-cleavage kobs at 640 uM GlcN6P [5]: 0.000406 ± 8.6e-05 s⁻¹
self-cleavage kobs at 2500 uM GlcN6P [6]: 0.000481 ± 0.00024 s⁻¹
self-cleavage kobs at 10000 uM GlcN6P [7]: 0.00109 ± 0.00021 s⁻¹

G32A G41U
kcat [1]: 0.000608 ± 0.00022 s⁻¹
self-cleavage kobs at 640 uM GlcN6P [5]: 5.48e-05 ± 9e-06 s⁻¹
self-cleavage kobs at 2500 uM GlcN6P [6]: 0.000125 ± 2e-05 s⁻¹
self-cleavage kobs at 10000 uM GlcN6P [7]: 0.00037 ± 5.5e-05 s⁻¹

G40C C71G
kcat [1]: 0.0271 ± 0.0085 s⁻¹
KM [2]: 1170 ± 420 µM
self-cleavage kobs at 40 uM GlcN6P [3]: 0.000948 ± 8.7e-05 s⁻¹
self-cleavage kobs at 160 uM GlcN6P [4]: 0.0028 ± 0.00046 s⁻¹
self-cleavage kobs at 640 uM GlcN6P [5]: 0.00953 ± 0.0017 s⁻¹
self-cleavage kobs at 2500 uM GlcN6P [6]: 0.0203 ± 0.0057 s⁻¹

G13C C70U
kcat [1]: 0.000154 ± 4.9e-06 s⁻¹
KM [2]: 1400 ± 140 µM
self-cleavage kobs at 640 uM GlcN6P [5]: 4.57e-05 ± 8.9e-06 s⁻¹
self-cleavage kobs at 2500 uM GlcN6P [6]: 0.000103 ± 1.2e-05 s⁻¹
self-cleavage kobs at 10000 uM GlcN6P [7]: 0.000134 ± 1e-05 s⁻¹

A14G G66C
kcat [1]: 0.00168 ± 6.5e-05 s⁻¹
KM [2]: 1410 ± 110 µM
self-cleavage kobs at 40 uM GlcN6P [3]: 4.79e-05 ± 9.1e-06 s⁻¹
self-cleavage kobs at 640 uM GlcN6P [5]: 0.000484 ± 0.00012 s⁻¹
self-cleavage kobs at 2500 uM GlcN6P [6]: 0.00114 ± 0.00025 s⁻¹
self-cleavage kobs at 10000 uM GlcN6P [7]: 0.00147 ± 0.00015 s⁻¹

U56G C58A
kcat [1]: 0.000993 ± 0.00023 s⁻¹
KM [2]: 6930 ± 2300 µM
self-cleavage kobs at 640 uM GlcN6P [5]: 7.48e-05 ± 1.1e-05 s⁻¹
self-cleavage kobs at 2500 uM GlcN6P [6]: 0.000312 ± 3.6e-05 s⁻¹
self-cleavage kobs at 10000 uM GlcN6P [7]: 0.000556 ± 7.1e-05 s⁻¹

A6C C67U
kcat [1]: 2.53e-05 ± 7.4e-07 s⁻¹
KM [2]: 660 ± 160 µM
self-cleavage kobs at 40 uM GlcN6P [3]: < 1e-05 s⁻¹
self-cleavage kobs at 160 uM GlcN6P [4]: < 1e-05 s⁻¹
self-cleavage kobs at 10000 uM GlcN6P [7]: 2.36e-05 ± 7.4e-06 s⁻¹

G41A A64G
kcat [1]: 0.00209 ± 0.00064 s⁻¹
KM [2]: 5950 ± 2800 µM
self-cleavage kobs at 160 uM GlcN6P [4]: 7.21e-05 ± 2e-05 s⁻¹
self-cleavage kobs at 2500 uM GlcN6P [6]: 0.00071 ± 0.00016 s⁻¹
self-cleavage kobs at 10000 uM GlcN6P [7]: 0.00128 ± 0.00023 s⁻¹

A12C A64G
kcat [1]: 0.000378 ± 6.7e-05 s⁻¹
KM [2]: 1600 ± 500 µM
self-cleavage kobs at 640 uM GlcN6P [5]: 0.000111 ± 1.5e-05 s⁻¹
self-cleavage kobs at 2500 uM GlcN6P [6]: 0.000209 ± 3.2e-05 s⁻¹
self-cleavage kobs at 10000 uM GlcN6P [7]: 0.000415 ± 0.0001 s⁻¹

A14C C68G
kcat [1]: 2.74e-05 ± 5.8e-06 s⁻¹
self-cleavage kobs at 640 uM GlcN6P [5]: 4.49e-05 ± 1.5e-05 s⁻¹
self-cleavage kobs at 10000 uM GlcN6P [7]: 2.58e-05 ± 8.4e-06 s⁻¹

U54G U65G
kcat [1]: 0.00368 ± 0.00099 s⁻¹
KM [2]: 3430 ± 1300 µM
self-cleavage kobs at 40 uM GlcN6P [3]: 5.92e-05 ± 6.8e-06 s⁻¹
self-cleavage kobs at 160 uM GlcN6P [4]: 0.00012 ± 2.1e-05 s⁻¹
self-cleavage kobs at 640 uM GlcN6P [5]: 0.000629 ± 9e-05 s⁻¹
self-cleavage kobs at 2500 uM GlcN6P [6]: 0.00144 ± 0.00021 s⁻¹
self-cleavage kobs at 10000 uM GlcN6P [7]: 0.00282 ± 0.00029 s⁻¹

G37U U49A C61G C70G
kcat [1]: 2.13e-05 ± 6.5e-06 s⁻¹

A6U C58U C70G
kcat [1]: 1.51e-05 ± 4.3e-06 s⁻¹

G9A U55A
kcat [1]: 2.49e-05 ± 5.6e-07 s⁻¹
KM [2]: 1410 ± 200 µM
self-cleavage kobs at 10000 uM GlcN6P [7]: 2.18e-05 ± 9.9e-06 s⁻¹

G13U C50G
kcat [1]: 4.84e-05 ± 1.3e-05 s⁻¹
self-cleavage kobs at 40 uM GlcN6P [3]: 4.61e-05 ± 1.2e-05 s⁻¹
self-cleavage kobs at 160 uM GlcN6P [4]: 8.07e-05 ± 1.7e-05 s⁻¹
self-cleavage kobs at 640 uM GlcN6P [5]: 6.9e-05 ± 1.6e-05 s⁻¹
self-cleavage kobs at 2500 uM GlcN6P [6]: 5.61e-05 ± 1.2e-05 s⁻¹
self-cleavage kobs at 10000 uM GlcN6P [7]: 2.19e-05 ± 1.1e-05 s⁻¹

G60U C67A
kcat [1]: < 1e-05 s⁻¹
self-cleavage kobs at 40 uM GlcN6P [3]: < 1e-05 s⁻¹
self-cleavage kobs at 160 uM GlcN6P [4]: < 1e-05 s⁻¹
self-cleavage kobs at 2500 uM GlcN6P [6]: < 1e-05 s⁻¹

G41C U56G
kcat [1]: 0.000101 ± 5.7e-06 s⁻¹
KM [2]: 2280 ± 390 µM
self-cleavage kobs at 640 uM GlcN6P [5]: 2.47e-05 ± 1e-05 s⁻¹
self-cleavage kobs at 2500 uM GlcN6P [6]: 4.78e-05 ± 1.5e-05 s⁻¹
self-cleavage kobs at 10000 uM GlcN6P [7]: 8.29e-05 ± 1.2e-05 s⁻¹
